These results are taken from the supplement of paper PMC10724198.

± gives the standard deviation of the averaged measurements.
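Note: PSI is a weighted mean of sequencing reads over stability bins, variants kept only with over 10 reads, mCherry proximal and sfGFP distal, peptide attached via GGGS linker.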

The test system of the series is Saccharomyces cerevisiae. The series can be described thus: protein stability index of tFT-peptide fusion (C-terminal peptide) (PSI (0-1 scale)); higher = more stable (slower turnover). The note with it: genetic background: wild type; temperature: 30 C. The protocol:
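Multiplexed protein stability (MPS) profiling in S. cerevisiae. Random 12-aa peptides (tFT-X12 library) are fused to the C-terminus of a sfGFP-mCherry tandem fluorescent timer, after mCherry and a GGGS linker. Cells are FACS-sorted into 8 mCherry/sfGFP bins and deep-sequenced. The protein stability index (PSI) is the read-weighted bin average, scaled from 0 (unstable) to 1 (stable). Only peptides with >10 reads are reported; cells were grown at 30 °C in SC-His with glucose.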
Sequence CVLAPPHRRAPS displayed a protein stability index of 0.699 ± 0.031.

In turn, CVLLGSTIPAIV displayed a protein stability index of 0.645 ± 0.043.

For the sequence CWVRGLEYCSIW, the protein stability index is 0.676 ± 0.028.

CYGAYLVSQWGS registered a protein stability index of 0.697 ± 0.028.

For DACWWVDDGGVV, the protein stability index turned out to be 0.719 ± 0.051.

DAGLCGCCGVIG returned a protein stability index of 0.666 ± 0.057.

On to DALGRSTKGGHW, for which the protein stability index stood at 0.689 ± 0.024.

DARGTVVEIRPG displayed a protein stability index of 0.72 ± 0.19.

DAVRRSSLSLAT: the protein stability index turned out to be 0.711 ± 0.16.

As to DCFSFVASSSFC, the protein stability index came to 0.7696 ± 0.004.

Sequence DCIAFVPRDRRS showed a protein stability index of 0.614 ± 0.012.

Consider DCREALLAKVYL, for which the protein stability index turned out to be 0.627 ± 0.07.

Regarding DCRLPSLPPCVA, the protein stability index was 0.648 ± 0.059.

In the case of DCYSKLQSRKCG, the protein stability index worked out at 0.682 ± 0.018.

As for DDTSIVRRMQSP, the protein stability index was found to be 0.674 ± 0.014.

Consider DEVRDTSGGTWA, for which the protein stability index came to 0.642 ± 0.02.

Turning to DFMGLRCSARKA, the protein stability index was found to be 0.693 ± 0.016.

On to DFPLISAHNTVC, for which the protein stability index amounted to 0.655 ± 0.033.

DFVESKVCSCSV gave a protein stability index of 0.666 ± 0.01.

As to DFVSQFSFQFGC, the protein stability index came to 0.713 ± 0.066.

Sequence DGGKRKQDSQKK gave a protein stability index of 0.683 ± 0.034.

Consider DGKGLRATWQWS, for which the protein stability index worked out at 0.737 ± 0.037.

DGLGSSGCCLCW: the protein stability index came to 0.693 ± 0.038.

With DGPGFNVCLRCK, the protein stability index amounted to 0.708 ± 0.017.

Regarding DGPRPPRPSPVP, the protein stability index was found to be 0.699 ± 0.04.

With DGPWGGVRAGEV, the protein stability index came out at 0.717 ± 0.063.

DGRLNVCCYPSC showed a protein stability index of 0.689 ± 0.15.

DGSSESRSGTGK showed a protein stability index of 0.69 ± 0.057.

DGTLTAKVIETF came in with a protein stability index of 0.66 ± 0.058.

Regarding DGTSKDSKWYMN, the protein stability index is 0.747 ± 0.088.

In the case of DGVGRLADGRGI, the protein stability index is 0.688 ± 0.013.

In turn, DGVGVPGCGRVG registered a protein stability index of 0.734 ± 0.075.

As to DGVWVRCGTLGF, the protein stability index is 0.715 ± 0.078.

On to DHCRTQHLGLEM, for which the protein stability index was 0.725 ± 0.015.

Consider DHGVRASSRATG, for which the protein stability index was determined as 0.692 ± 0.015.

As for DHHGGTEPHRVP, the protein stability index stood at 0.7079 ± 0.0052.

DICCGLCGLLPR yielded a protein stability index of 0.658 ± 0.079.

Regarding DIGGLGYCDCVK, the protein stability index was determined as 0.758 ± 0.054.

In turn, DIGGTDYDPAIS gave a protein stability index of 0.7138 ± 0.0017.

As for DIHLSRQKTRIL, the protein stability index was 0.752 ± 0.17.

DIKKSTKGQNQQ showed a protein stability index of 0.602 ± 0.025.

As to DILCRILLRPKG, the protein stability index came out at 0.63 ± 0.031.

As for DIRFSAARRPTG, the protein stability index turned out to be 0.6627 ± 0.0053.

DIRKAEISANFC had a protein stability index of 0.59434 ± 2.4e-05.

In the case of DITQSRIHMTNI, the protein stability index came to 0.661 ± 0.055.

Take DKKEEEKKSTKH: the protein stability index came out at 0.70302 ± 0.00026.

The sequence DKNDGNHKKKKN returned a protein stability index of 0.702 ± 0.017.

In the case of DKPVDTRPGSPG, the protein stability index is 0.66 ± 0.031.

Sequence DKSHRKNKKKRN registered a protein stability index of 0.699 ± 0.0074.

DKYKIDKKSKRK came in with a protein stability index of 0.683 ± 0.059.

Take DLATSVVYIVTV: the protein stability index was 0.506 ± 0.0077.

Sequence DLDVVGEGSAGT had a protein stability index of 0.683 ± 0.046.

DLFLTSSCPCLC registered a protein stability index of 0.55106 ± 4.5e-05.

Sequence DLGLEVVSFLKF gave a protein stability index of 0.741 ± 0.068.

DLPDGRRFIVIG had a protein stability index of 0.682 ± 0.08.

Consider DLPDLQPACPRF, for which the protein stability index was 0.722 ± 0.019.

With DLPSSPCSYFRR, the protein stability index worked out at 0.616 ± 0.034.

In turn, DLRVSLLSHLSL yielded a protein stability index of 0.679 ± 0.11.

For DLSAGKWSRSSD, the protein stability index was determined as 0.689 ± 0.023.

As for DLSAGPPFLLIR, the protein stability index came to 0.6717 ± 0.0038.

The sequence DLTGKGCIYMER returned a protein stability index of 0.702 ± 0.034.

Turning to DLVGSWMCGPDL, the protein stability index was determined as 0.691 ± 0.028.

Sequence DLVRGGNCVYGV registered a protein stability index of 0.66 ± 0.032.

The sequence DMAVYLVSVSRV yielded a protein stability index of 0.609 ± 0.053.
